Source: patent US20210347873A1 (SHANGHAI PHARMAEXPLORER, published 2021)
Read-outs that look alike come from different tables or passages of the source.

What was measured:
[1] = biological target: T1, extracellular domain of human BLyS protein (hBLyS-ECD), His-tagged, Ala134-Leu285 (human, UniProt Q9Y275 134-285); assay: cell-based or functional assay
[2] = biological target: T2, biotinylated hBLyS-ECD (human, UniProt Q9Y275 134-285, biotinylated with Biotin-X-X-NHS (molar ratio 7:1); sites not stated); assay: ELISA on captured biotinylated hBLyS-ECD; antibody 0.534 nM
T2 construct: also called biotinylated immunogen; biotinylated hBLvS-ECD

[3] = biological target: T2, biotinylated hBLyS-ECD; assay: BAFF R-coated ELISA, biotinylated hBLyS-ECD bound in presence of antibody 100 nM
[4] = biological target: T2, biotinylated hBLyS-ECD; assay: BAFF R-coated ELISA, biotinylated hBLyS-ECD bound in presence of antibody 0.0064 nM
[5] = biological target: T2, biotinylated hBLyS-ECD; assay: ELISA on captured biotinylated hBLyS-ECD; antibody 66.7 nM
[6] = biological target: T2, biotinylated hBLyS-ECD; assay: ELISA on captured biotinylated hBLyS-ECD; antibody 0.107 nM
[7] = biological target: T2, biotinylated hBLyS-ECD; assay: ELISA on captured biotinylated hBLyS-ECD; antibody 13.3 nM
[8] = biological target: T1, extracellular domain of human BLyS …; assay: SPR (Biacore), antibody captured by anti-human Fc, hBLyS-ECD as analyte
Description: Affinity constants were determined using a Biacore X100 instrument (purchased from GE Healthcare). Detailed operations and methods referred to the instrument manuals and detailed methods provided by manufacturers, specifically: determining affinity constant using a CM5 chip (Sensor Chip CM5, purchased from GE Healthcare). […] Then 1 M ethanolamine was injected in chip to block the remaining activation sites. After the antibody to be tested (i.e., the human BLyS antibody prepared by Embodiment 2) was captured by chip, 7 different gradient of immunogen dilutions (i.e., hBLyS-ECD) prepared by Embodiment 1 were injected and the binding and dissociation of antigen with antibody was detected by a Biacore instrument. The dissociation constant and binding constant were then fitted by Biacore X100 Evaluation Software 2.0, while the affinity constant was the ratio of dissociation constant to binding constant.
The binding and dissociation between antibody and antigen was detected by Biacore.

[9] = biological target: T2, biotinylated hBLyS-ECD; assay: BAFF R-coated ELISA, biotinylated hBLyS-ECD bound in presence of antibody 0.032 nM
[10] = biological target: T2, biotinylated hBLyS-ECD; assay: BAFF R-coated ELISA, biotinylated hBLyS-ECD bound in presence of antibody 4 nM
[11] = biological target: T2, biotinylated hBLyS-ECD; assay: BAFF R-coated ELISA, biotinylated hBLyS-ECD bound in presence of antibody 0 nM
[12] = biological target: T2, biotinylated hBLyS-ECD; assay: BAFF R-coated ELISA, biotinylated hBLyS-ECD bound in presence of antibody 20 nM
[13] = biological target: T2, biotinylated hBLyS-ECD; assay: BAFF R-coated ELISA, biotinylated hBLyS-ECD bound in presence of antibody 0.8 nM
[14] = biological target: T2, biotinylated hBLyS-ECD; assay: ELISA on captured biotinylated hBLyS-ECD; antibody 2.67 nM
[15] = biological target: T2, biotinylated hBLyS-ECD; assay: BAFF R-coated ELISA, biotinylated hBLyS-ECD bound in presence of antibody 0.16 nM
[16] = biological target: T2, biotinylated hBLyS-ECD; assay: ELISA on captured biotinylated hBLyS-ECD; antibody 0.00427 nM
[17] = biological target: T2, biotinylated hBLyS-ECD; assay: ELISA on captured biotinylated hBLyS-ECD; antibody 0 nM (background)
[18] = biological target: T2, biotinylated hBLyS-ECD; assay: ELISA on captured biotinylated hBLyS-ECD; antibody 0.0213 nM
[19] = biological target: T1, extracellular domain of human BLyS …; assay: SPR (Biacore), antibody captured by anti-human Fc, hBLyS-ECD as analyte; remark: listed apart in the source

Row | Proportion of B lymphocytes in splenocytes (%), in vivo in mice [1] [%] | OD450 nm [2] [OD450 nm] | OD450 nm [3] [OD450 nm] | OD450 nm [4] [OD450 nm] | OD450 nm [5] [OD450 nm] | OD450 nm [6] [OD450 nm] | OD450 nm [7] [OD450 nm] | Kd [8] [nM] | koff [8] [s⁻¹] | kon [8] [M⁻¹ s⁻¹] | OD450 nm [9] [OD450 nm] | OD450 nm [10] [OD450 nm] | OD450 nm [11] [OD450 nm] | OD450 nm [12] [OD450 nm] | OD450 nm [13] [OD450 nm] | OD450 nm [14] [OD450 nm] | OD450 nm [15] [OD450 nm] | OD450 nm [16] [OD450 nm] | OD450 nm [17] [OD450 nm] | OD450 nm [18] [OD450 nm] | Binder | also measured
1 | 25.6 |  |  |  |  |  |  |  |  |  |  |  |  |  |  |  |  |  |  |  | 2-1G11 (antibody, V domains shown) VH: EVQLVESRGGVVQPGRSLRLSCAASGFTFSSYGMHWVRQAPGKGLEWVAVISYDGSNKYYADSVKGRFTISRDNSKNTLYLQMNSLRAEDAAVYYCARDRVDILTGYSIYGMDVWGQGTTVTVSS VL: EIVMTQSPATLSLSPGERATLSCRASQSVSSYLAWYQQKPGQAPRLLIYDASKRATGIPARFSGSGSGTDFTLTISSLEPEDFAVYYCQQRSNWPLTFGGGTKVEIK | 
2 |  | 1.88 | 0.506 | 1.96 | 2.37 | 1.02 | 2.27 | 1.88 | 0.000216 | 115000 | 1.98 | 1.13 | 1.94 | 0.748 | 1.56 | 2.24 | 1.81 | 0.179 | 0.198 | 0.372 | h97A3C2H4-9 (antibody, V domains shown, Humanized antibody; VH3-7/JH6 CDR-grafted with A93T, G44R; also called humanized BLyS antibody h97A3C2H4 variant 9 (VH.1b / Vk.1d)) VH: EVQLVESGGGLVQPGGSLRLSCAASGFTFSTYTMSWVRQAPGKRLEWVAYISYGGGSTSYPDTVKGRFTISRDNAKNSLYLQMNSLRAEDTAVYYCTRHVTVVENSMDYWGQGTTVTVSS VL: DILLTQSPDFQSVTPKEKVTITCRASQSIGTSIHWYQQKTDQSPKLLIKYVSESFSGTPSRFSGSGSGTDFTLTINSLEAEDAATYYCQQTHSWPWTFGGGTKVEIK | 
3 |  | 1.88 | 0.45 | 1.98 | 2.3 | 1.35 | 2.2 | 4.33 | 0.000942 | 218000 | 1.87 | 1.11 | 2.05 | 0.721 | 1.54 | 2.18 | 1.78 | 0.195 | 0.129 | 0.499 | h8E7D9C7F5-1 (antibody, V domains shown, Humanized antibody; also called humanized BLyS antibody h8E7D9C7F5 variant 1 (VH.1 / Vk.1)) VH: EVQLVQSGAEVKKPGASVKVSCKASGYTFTSYGISWVRQAPGQGLEWMGEIYPRSGNTYYNEKFKGRVTMTTDTSTSTAYMELRSLRSDDTAVYYCARSGPITTLVATDYGMDYWGQGTTVTVSS VL: DIVMTQSPDSLAVSLGERATINCRASKSVSTSSYSYMHWYQQKPGQPPKLLIKFASNLESGVPDRFSGSGSGTDFTLTISSLQAEDVAVYYCQHSREFPYTFGGGTKVEIK | 
4 | 30.5 |  |  |  |  |  |  |  |  |  |  |  |  |  |  |  |  |  |  |  | c35E6F7C3 (antibody, V domains shown) VH: EVQLQQSGAELVKPGASVKLSCTAAGFNIQDTYIHWVKQRPEQGLEWIGRIDPANANTVYDPKFQGKATITADTSSNTAYLQVSSLTSEDTAVYYCASPVITAGFAYWGQGTLVTVSA VL: QIVLTQSPAIMSASPGEKVTMTCGASSSVNYVHWYQQKSGTSPKRWIYDTSKLASGVPARFSGSGSGTSYSLTISSMEAEDAATYYCQQWTRSPLTFGAGTKVELK | Kd [19]: 1.45 nM; koff [19]: 0.000277 s⁻¹; kon [19]: 190000 M⁻¹ s⁻¹
